Patent US6500674

Legend:
[1] = molecular target: phosphorylated tau prepared by incubating recombinant non-phosphorylated tau with a rat brain extract (UniProt P10636); experiment: sandwich ELISA on CSF spiked with phosphorylated and non-phosphorylated tau, no amplification
[2] = molecular target: phosphorylated tau prepared by incubating recombinant non-phosphorylated tau with a rat brain extract (UniProt P10636); experiment: sandwich ELISA, antibody coated, CSF spiked with tau, detection with biotinylated AT120 and HT7
[3] = molecular target: recombinant non-phosphorylated tau (UniProt P10636); experiment: as above
[4] = molecular target: phosphorylated tau prepared by incubating recombinant non-phosphorylated tau with a rat brain extract (UniProt P10636); experiment: sandwich ELISA, antibody coated, CSF without added tau (background), detection with biotinylated AT120 and HT7
[5] = molecular target: recombinant non-phosphorylated tau (UniProt P10636); experiment: as above

detection limit in ELISA [1]	ELISA signal at 0.2 pg/ml tau [2]	ELISA signal at 1 pg/ml tau [2]	ELISA signal at 5 pg/ml tau [2]	ELISA signal at 25 pg/ml tau [2]	ELISA signal at 100 pg/ml tau [2]	ELISA signal at 500 pg/ml tau [2]	ELISA signal at 2000 pg/ml tau [2]	ELISA signal at 0.2 pg/ml tau [3]	ELISA signal at 1 pg/ml tau [3]	ELISA signal at 5 pg/ml tau [3]	ELISA signal at 25 pg/ml tau [3]	ELISA signal at 100 pg/ml tau [3]	ELISA signal at 500 pg/ml tau [3]	ELISA signal at 2000 pg/ml tau [3]	ELISA signal at 0 pg/ml tau (blank) [4]	ELISA signal at 0 pg/ml tau (blank) [5]	Substance
10 pg/mL	95	97	106	105	125	179	449	85	87	90	85	94	92	95	94	89	monoclonal antibody AT180 secreted by the hybridoma deposited at ECACC on Dec. 22, 1992 under No. 92122204
10 pg/mL	89	83	86	113	158	1040	2650	91	90	87	92	96	94	98	94	92	monoclonal antibody AT270 secreted by the hybridoma deposited at ECACC on Jul. 7, 1993 under No. 93070774
